This note sets out measurements from article doi:10.1101/2021.09.13.460021.

The target of assay [1] is biotinylated unmodified histone H3 peptide. The experiment in a line: pull-down + far-Western, overlay or dot blot.
Assay [2] deals with biotinylated histone H3K9me3 peptide. Nature of the assay: pull-down + far-Western, overlay or dot blot.

B1: GST tagged recombinant chromodomain (PfCD) of the chromodomain-containing protein PfCDP, wild type (domain or fragment)
chain: NEVFEVEKIIMARYKLNCKRKKNRKDENLDDFEFYIKWKNYDSDENTWEPFENLSPNLKGQARKVAL
For B1, the Kd (usually a measure of binding affinity in units of concentration) was 175 nM in assay [1] and 38 nM in assay [2].
